Results on one molecule are retold here after publication PMC5224480 (Nucleic Acids Research, 2016).

The assay concerns the target T1, β subunit of Thermotoga maritima RNA polymerase (tmβ) (Thermotoga maritima, UniProt P29398 1-1263).
T1 sequence (looked up): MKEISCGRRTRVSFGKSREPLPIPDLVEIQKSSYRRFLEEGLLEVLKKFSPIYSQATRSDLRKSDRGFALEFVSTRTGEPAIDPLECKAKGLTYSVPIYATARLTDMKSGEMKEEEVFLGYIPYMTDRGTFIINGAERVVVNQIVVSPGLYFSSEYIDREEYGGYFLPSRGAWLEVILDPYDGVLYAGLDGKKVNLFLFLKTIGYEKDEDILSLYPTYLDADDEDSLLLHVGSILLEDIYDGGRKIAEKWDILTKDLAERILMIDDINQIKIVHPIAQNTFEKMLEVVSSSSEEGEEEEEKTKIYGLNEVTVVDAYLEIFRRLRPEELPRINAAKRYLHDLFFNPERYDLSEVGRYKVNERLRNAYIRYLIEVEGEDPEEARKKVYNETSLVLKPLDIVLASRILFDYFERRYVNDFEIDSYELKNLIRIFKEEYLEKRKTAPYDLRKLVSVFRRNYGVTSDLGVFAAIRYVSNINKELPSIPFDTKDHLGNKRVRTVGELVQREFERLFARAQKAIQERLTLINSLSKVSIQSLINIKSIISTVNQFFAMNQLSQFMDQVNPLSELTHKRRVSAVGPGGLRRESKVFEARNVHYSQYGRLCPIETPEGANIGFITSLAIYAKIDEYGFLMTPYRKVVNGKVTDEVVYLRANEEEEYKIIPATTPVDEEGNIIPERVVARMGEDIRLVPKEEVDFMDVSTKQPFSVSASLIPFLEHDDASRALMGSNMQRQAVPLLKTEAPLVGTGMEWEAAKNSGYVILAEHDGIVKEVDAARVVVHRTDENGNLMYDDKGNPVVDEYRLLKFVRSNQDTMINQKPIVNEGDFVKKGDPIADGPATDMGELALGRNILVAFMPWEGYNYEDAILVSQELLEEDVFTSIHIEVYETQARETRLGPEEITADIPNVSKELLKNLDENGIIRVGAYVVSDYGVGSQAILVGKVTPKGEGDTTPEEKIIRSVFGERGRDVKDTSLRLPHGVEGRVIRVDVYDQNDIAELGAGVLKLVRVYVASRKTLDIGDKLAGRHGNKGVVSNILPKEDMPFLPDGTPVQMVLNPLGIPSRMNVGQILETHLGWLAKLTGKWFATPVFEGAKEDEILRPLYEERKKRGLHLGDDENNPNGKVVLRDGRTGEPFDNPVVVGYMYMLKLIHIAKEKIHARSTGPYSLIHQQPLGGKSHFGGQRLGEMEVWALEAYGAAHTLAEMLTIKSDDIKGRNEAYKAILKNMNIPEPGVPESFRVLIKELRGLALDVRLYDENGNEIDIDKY
As to the kind of experiment: NMR titration.

B1: tmNusG-DII (residues 42-233 of tmNusG) (domain or fragment, Thermotoga maritima, UniProt P29397 42-233, looked up)
chain: EEVVLDATSPSERLILSPKAKLHVNNGKDVNKGDLIAEEPPIYARRSGVIVDVKNVRKIVVETIDRKYTKTYYIPESAGIEPGLRVGTKVKQGLPLSKNEEYICELDGKIVEIERMKKVVVQTPDGEQDVYYIPLDVFDRDRIKKGKEVKQGEMLAEARKFFAKVSGRVEVVDYSTRKEIRIYKTKRRKLFP
For the molecule B1, the binding result is recorded as “binds”.
